Data taken from patent US7244431B2, “Allergy vaccines and their preparation” (priority 2000, dated 2007).

How the values were obtained:
[1] = test system: IgE antibodies in sera from birch pollen allergic patients; experiment: ELISA detection of peptide- and rBet v 1-specific IgE antibodies; assay type: binding, human
Procedure, shortened: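 IgE binding detected by 1:1000 alkaline-phosphatase mouse monoclonal anti-human IgE after overnight 4 °C incubation with 1:3-diluted sera. Sera came from 60 birch pollen allergic patients (25 male, 35 female, age 19–60) and a non-atopic control.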

[2] = test system: basophilic granulocytes of birch pollen allergic individuals; experiment: Basophil histamine-release assay; assay type: cell-based, human; conditions: 10^−3-10 μg/ml
Procedure: Granulocytes were isolated from heparinized blood samples of 3 birch pollen allergic individuals by dextran sedimentation (Valent, P. et al. (1989) Interleukin 3 activates human blood basophils via high-affinity binding sites. Proc. Natl. Sci. USA 86, 5542-5547). […] Histamine released in the cell-free culture supernatant was measured by radioimmunoassay (Immunotech, Marseille, France). Total histamine was determined after freezing and thawing of cells.

[3] = test system: birch pollen allergic patients; experiment: Skin prick testing of allergic patients; assay type: in vivo, human
Procedure: SPTs were performed on the individuals forearms as described ([…]. et al. (1997) J. Clin Invest. 99, 1673-168; Dreborg S: (1989) J. Am. Acad. DerMatol. 21, 820-821). […] In addition standardized skin prick solutions (birch pollen extract and histamine) (Allergopharma, Reinbek, Germany) were tested. Reactions were recorded 20 minutes after SPT by photography and by transferring the ballpoint pen-surrounded wheal area with a scotch tape to paper.

[4] = all 60 birch pollen allergic patients

B1: rBet v 1: purified recombinant Bet v 1, major birch pollen allergen, purchased from BIOMAY (protein)
chain: GVFNYETETTSVIPAARLFKAFILDGDNLFPKVAPQAISSVENIEGNGGPGTIKKISFPEGFPFKYVKDRVDEVDHTNFKYNYSVIEGGPIGDTLEKISNEIKIVATPDGGSILKISNKYHTKGDHEVKAEQVKASKEMGETLLRAVESYLLAHSDAYN
rBet v1-specific IgE antibodies, mean [1, 4]: 1.416 OD units
rBet v1-specific IgE antibodies, range [1, 4]: 0.081-2.530 OD units
IgE (OD) ([1]; serum of NHS, non-allergic control individual): 0.048 OD
IgE (OD) ([1]; serum of patient 1): 0.829 OD
IgE (OD) ([1]; serum of patient 2): 1.380 OD
IgE (OD) ([1]; serum of patient 3): 2.144 OD
IgE (OD) ([1]; serum of patient 4): 0.701 OD
IgE (OD) ([1]; serum of patient 5): 0.344 OD
IgE (OD) ([1]; serum of patient 6): 2.300 OD
IgE (OD) ([1]; serum of patient 7): 2.245 OD
IgE (OD) ([1]; serum of patient 9): 0.196 OD
IgE (OD) ([1]; serum of patient 10): 0.097 OD
IgE (OD) ([1]; serum of patient 11): 0.428 OD
IgE (OD) ([1]; serum of patient 12): 0.271 OD
IgE (OD) ([1]; serum of patient 13): 0.281 OD
IgE (OD) ([1]; serum of patient 14): 0.704 OD
IgE (OD) ([1]; serum of patient 20): 0.249 OD
IgE (OD) ([1]; serum of patient 21): 0.461 OD
IgE (OD) ([1]; serum of patient 22): 0.258 OD
IgE (OD) ([1]; serum of patient 23): 1.555 OD
IgE (OD) ([1]; serum of patient 25): 0.5 OD
IgE (OD) ([1]; serum of patient 26): 0.191 OD
IgE (OD) ([1]; serum of patient 27): 0.535 OD
IgE (OD) ([1]; serum of patient 28): 0.492 OD
IgE (OD) ([1]; serum of patient 29): 0.154 OD
IgE (OD) ([1]; serum of patient 30): 0.081 OD
IgE (OD) ([1]; serum of patient 32): 0.195 OD
IgE (OD) ([1]; serum of patient 33): 0.106 OD
IgE (OD) ([1]; serum of patient 34): 0.377 OD
IgE (OD) ([1]; serum of patient 36): 0.306 OD
IgE (OD) ([1]; serum of patient 38): 1.571 OD
IgE (OD) ([1]; serum of patient 40): 0.084 OD
IgE (OD) ([1]; serum of patient 43): 0.363 OD
IgE (OD) ([1]; serum of patient 44): 2.386 OD
IgE (OD) ([1]; serum of patient 45): 0.289 OD
IgE (OD) ([1]; serum of patient 47): 0.381 OD
IgE (OD) ([1]; serum of patient 48): 1.422 OD
IgE (OD) ([1]; serum of patient 49): 0.379 OD
IgE (OD) ([1]; serum of patient 51): 0.307 OD
IgE (OD) ([1]; serum of patient 54): 1.310 OD
IgE (OD) ([1]; serum of patient 55): 2.489 OD
IgE (OD) ([1]; serum of patient 56): 2.530 OD
IgE (OD) ([1]; serum of patient 57): 0.741 OD
IgE (OD) ([1]; serum of patient 58): 0.072 OD
IgE (OD) ([1]; serum of patient 59): 0.168 OD
induction of histamine release [2]: dose-dependent release of histamine
concentration inducing immediate type skin reactions in three patients (#1-3) ([3]; human, in vivo): < 0.78 µg/mL
concentration sufficient to induce wheal reactions in all five birch pollen allergic patients ([3]; human, in vivo): 3.12 µg/mL
mean wheal diameter ([3]; individual 1, rBet v 1 0.39 μg/ml): 2.5 mm
mean wheal diameter ([3]; individual 1, rBet v 1 0.78 μg/ml): 4 mm
mean wheal diameter ([3]; individual 1, rBet v 1 1.56 μg/ml): 4.5 mm
mean wheal diameter ([3]; individual 1, rBet v 1 3.12 μg/ml): 5 mm
mean wheal diameter ([3]; individual 1, rBet v 1 6.25 μg/ml): 6 mm
mean wheal diameter ([3]; individual 1, rBet v 1 12.5 μg/ml): 13 mm
mean wheal diameter ([3]; individual 2, rBet v 1 0.39 μg/ml): 2 mm
mean wheal diameter ([3]; individual 2, rBet v 1 0.78 μg/ml): 3.5 mm
mean wheal diameter ([3]; individual 2, rBet v 1 1.56 μg/ml): 5 mm
mean wheal diameter ([3]; individual 2, rBet v 1 3.12 μg/ml): 5.5 mm
mean wheal diameter ([3]; individual 2, rBet v 1 6.25 μg/ml): 7 mm
mean wheal diameter ([3]; individual 2, rBet v 1 12.5 μg/ml): 7.5 mm
mean wheal diameter ([3]; individual 2, rBet v 1 25 μg/ml): 8 mm
mean wheal diameter ([3]; individual 3, rBet v 1 0.78 μg/ml): 2 mm
mean wheal diameter ([3]; individual 3, rBet v 1 1.56 μg/ml): 3 mm
mean wheal diameter ([3]; individual 3, rBet v 1 3.12 μg/ml): 4 mm
mean wheal diameter ([3]; individual 3, rBet v 1 6.25 μg/ml): 6 mm
mean wheal diameter ([3]; individual 3, rBet v 1 12.5 μg/ml): 6.5 mm
mean wheal diameter ([3]; individual 3, rBet v 1 25 μg/ml): 8 mm
mean wheal diameter ([3]; individual 4, rBet v 1 3.12 μg/ml): 2 mm
mean wheal diameter ([3]; individual 4, rBet v 1 6.25 μg/ml): 3 mm
mean wheal diameter ([3]; individual 4, rBet v 1 12.5 μg/ml): 4 mm
mean wheal diameter ([3]; individual 4, rBet v 1 25 μg/ml): 4.5 mm
mean wheal diameter ([3]; individual 5, rBet v 1 1.56 μg/ml): 2 mm
mean wheal diameter ([3]; individual 5, rBet v 1 3.12 μg/ml): 2.5 mm
mean wheal diameter ([3]; individual 5, rBet v 1 6.25 μg/ml): 4 mm
mean wheal diameter ([3]; individual 5, rBet v 1 12.5 μg/ml): 11 mm
mean wheal diameter ([3]; individual 5, rBet v 1 25 μg/ml): 5 mm
